From paper PMC12102759 (2025)

B1: PRDM14 peptide 196-211 (PR domain zinc finger protein 14), 16-mer library wild type / NSP3 SUD-M (ORF1ab Nsp3c SUD-M, residues 1356-1493) (parent complex)
chain 1: QFTEEDLHFVLYGVTP
chain 2: LPSIISNEKQEILGTVSWNLREMLAHAEETRKLMPVCVETKAIVSTIQRKYKGIKIQEGVVDYGARFYFYTSKTTVASLINTLNDLNETLVTMPLGYVTHGLNLEEAARYMRSLKVPATVSVSSPDAVTAYNGYLTSS
B2: PEX5 peptide 240-255 (Peroxisomal targeting signal 1 receptor), 16-mer library wild type / PEX14 Pex14 (PEX14 PEX14, residues 16-84) (parent complex)
chain 1: AEQWAAEFIQQQGTSD
chain 2: TPGSENVLPREPLIATAVKFLQNSRVRQSPLATRRAFLKKKGLTDEEIDMAFQQSGTAADEPSSLGPAT

Variants of: B1
Experiment: bait immobilised on MaxiSorp plates (10 µg), library pre-cleared on GST, 2 h binding at 4 °C, five washes; one round per day, days 1-4; value from days 2 and 3

Variant	screen value
chain 1 QFTEEALHFVLYGVTP	6.63e-05 average fractional NGS count over selection days 2 and 3 (reads of this peptide / all reads for the bait, averaged over …
chain 1 QFTEEDLHFVLYGITP	7.71e-05 average fractional NGS count over selection days 2 and 3 (reads of this peptide / all reads for the bait, averaged over …
chain 1 QFTEEDLHFVLYGVTE	9.32e-05 average fractional NGS count over selection days 2 and 3 (reads of this peptide / all reads for the bait, averaged over …
chain 1 QFTEEDLRFVLYGVTP	0.0209 average fractional NGS count over selection days 2 and 3 (reads of this peptide / all reads for the bait, averaged over …
chain 1 QFTEEELHFVLYGVTP	0.0721 average fractional NGS count over selection days 2 and 3 (reads of this peptide / all reads for the bait, averaged over …
chain 1 QFTEEDLLFVLYGVTP	0.000127 average fractional NGS count over selection days 2 and 3 (reads of this peptide / all reads for the bait, averaged over …
chain 1 QFTEEDLKFVLYGVTP	0.000229 average fractional NGS count over selection days 2 and 3 (reads of this peptide / all reads for the bait, averaged over …
chain 1 QFTEEDLEFVLYGVTP	4.27e-05 average fractional NGS count over selection days 2 and 3 (reads of this peptide / all reads for the bait, averaged over …
chain 1 QFTEEDLVFVLYGVTP	0.000167 average fractional NGS count over selection days 2 and 3 (reads of this peptide / all reads for the bait, averaged over …
chain 1 QFTEEDLHFVLMGVTP	4.44e-05 average fractional NGS count over selection days 2 and 3 (reads of this peptide / all reads for the bait, averaged over …
chain 1 QFTEEDLAFVLYGVTP	0.00113 average fractional NGS count over selection days 2 and 3 (reads of this peptide / all reads for the bait, averaged over …
chain 1 QFTEEDLYFVLYGVTP	5.98e-05 average fractional NGS count over selection days 2 and 3 (reads of this peptide / all reads for the bait, averaged over …
chain 1 QFTEEVLHFVLYGVTP	5.37e-05 average fractional NGS count over selection days 2 and 3 (reads of this peptide / all reads for the bait, averaged over …
chain 1 QFTEEDLMFVLYGVTP	0.194 average fractional NGS count over selection days 2 and 3 (reads of this peptide / all reads for the bait, averaged over …
chain 1 QFTEEDLHFVLYGVTR	6.57e-05 average fractional NGS count over selection days 2 and 3 (reads of this peptide / all reads for the bait, averaged over …
chain 1 QFTEEDLHFVLYGVTH	0.000235 average fractional NGS count over selection days 2 and 3 (reads of this peptide / all reads for the bait, averaged over …
chain 1 QFSEEDLHFVLYGVTP	0.000238 average fractional NGS count over selection days 2 and 3 (reads of this peptide / all reads for the bait, averaged over …

Variants of: B2
Experiment: proteomic peptide phage display deep mutational scan (ProP-PD DMS): M13 P8 16-mer library selected against immobilised GST-tagged bait for four days (rounds), NGS of the eluted pools per day and pseudo-replica; bait immobilised on MaxiSorp plates (10 µg), library pre-cleared on GST, 2 h binding at 4 °C, five washes; one round per day, days 1-4; value from days 2 and 3

Variant	screen value
chain 1 AEQWAWEFIQQQGTSD	0.00422 average fractional NGS count over selection days 2 and 3 (reads of this peptide / all reads for the bait, averaged over …
chain 1 AEQWAAEFEQQQGTSD	0.00149 average fractional NGS count over selection days 2 and 3 (reads of this peptide / all reads for the bait, averaged over …
chain 1 AEQWQAEFIQQQGTSD	0.00841 average fractional NGS count over selection days 2 and 3 (reads of this peptide / all reads for the bait, averaged over …
chain 1 AEQWAAVFIQQQGTSD	0.000633 average fractional NGS count over selection days 2 and 3 (reads of this peptide / all reads for the bait, averaged over …
chain 1 AEQWYAEFIQQQGTSD	0.00174 average fractional NGS count over selection days 2 and 3 (reads of this peptide / all reads for the bait, averaged over …
chain 1 AEQWAEEFIQQQGTSD	0.000449 average fractional NGS count over selection days 2 and 3 (reads of this peptide / all reads for the bait, averaged over …
chain 1 AEQWAAEFIQQQHTSD	0.00793 average fractional NGS count over selection days 2 and 3 (reads of this peptide / all reads for the bait, averaged over …
chain 1 YEQWAAEFIQQQGTSD	0.017 average fractional NGS count over selection days 2 and 3 (reads of this peptide / all reads for the bait, averaged over …
chain 1 AEQWAAEFIQAQGTSD	0.00173 average fractional NGS count over selection days 2 and 3 (reads of this peptide / all reads for the bait, averaged over …
chain 1 AEQWAAEFVQQQGTSD	0.00275 average fractional NGS count over selection days 2 and 3 (reads of this peptide / all reads for the bait, averaged over …
chain 1 AEQWAAEFIQQQGVSD	0.000546 average fractional NGS count over selection days 2 and 3 (reads of this peptide / all reads for the bait, averaged over …
chain 1 AETWAAEFIQQQGTSD	0.00148 average fractional NGS count over selection days 2 and 3 (reads of this peptide / all reads for the bait, averaged over …
chain 1 AEQWAAEFNQQQGTSD	0.00185 average fractional NGS count over selection days 2 and 3 (reads of this peptide / all reads for the bait, averaged over …
chain 1 DEQWAAEFIQQQGTSD	0.00705 average fractional NGS count over selection days 2 and 3 (reads of this peptide / all reads for the bait, averaged over …
chain 1 AEQWAAEFIPQQGTSD	0.00113 average fractional NGS count over selection days 2 and 3 (reads of this peptide / all reads for the bait, averaged over …
chain 1 NEQWAAEFIQQQGTSD	0.00349 average fractional NGS count over selection days 2 and 3 (reads of this peptide / all reads for the bait, averaged over …
chain 1 MEQWAAEFIQQQGTSD	0.000375 average fractional NGS count over selection days 2 and 3 (reads of this peptide / all reads for the bait, averaged over …
chain 1 AEQWAAEFQQQQGTSD	0.00295 average fractional NGS count over selection days 2 and 3 (reads of this peptide / all reads for the bait, averaged over …
chain 1 ANQWAAEFIQQQGTSD	0.0028 average fractional NGS count over selection days 2 and 3 (reads of this peptide / all reads for the bait, averaged over …
chain 1 AEQWKAEFIQQQGTSD	0.00108 average fractional NGS count over selection days 2 and 3 (reads of this peptide / all reads for the bait, averaged over …

Variant	screen value
chain 1 ARQWAAEFIQQQGTSD	0.00281 average fractional NGS count over selection days 2 and 3 (reads of this peptide / all reads for the bait, averaged over …
chain 1 AEPWAAEFIQQQGTSD	0.00138 average fractional NGS count over selection days 2 and 3 (reads of this peptide / all reads for the bait, averaged over …
chain 1 AEQWSAEFIQQQGTSD	0.00197 average fractional NGS count over selection days 2 and 3 (reads of this peptide / all reads for the bait, averaged over …
chain 1 AEQWAAEFIQKQGTSD	0.000704 average fractional NGS count over selection days 2 and 3 (reads of this peptide / all reads for the bait, averaged over …
chain 1 AEQWATEFIQQQGTSD	0.0091 average fractional NGS count over selection days 2 and 3 (reads of this peptide / all reads for the bait, averaged over …
chain 1 AEQWAAEFIQQQGGSD	0.000345 average fractional NGS count over selection days 2 and 3 (reads of this peptide / all reads for the bait, averaged over …
chain 1 AEQWAAEFIRQQGTSD	0.00109 average fractional NGS count over selection days 2 and 3 (reads of this peptide / all reads for the bait, averaged over …
chain 1 EEQWAAEFIQQQGTSD	0.000945 average fractional NGS count over selection days 2 and 3 (reads of this peptide / all reads for the bait, averaged over …
chain 1 AEQWAAEFAQQQGTSD	0.00188 average fractional NGS count over selection days 2 and 3 (reads of this peptide / all reads for the bait, averaged over …
chain 1 AEQWAAEFIQQWGTSD	0.000968 average fractional NGS count over selection days 2 and 3 (reads of this peptide / all reads for the bait, averaged over …
chain 1 AEQWDAEFIQQQGTSD	0.00199 average fractional NGS count over selection days 2 and 3 (reads of this peptide / all reads for the bait, averaged over …
chain 1 AEQWAAEFIQQGGTSD	0.00219 average fractional NGS count over selection days 2 and 3 (reads of this peptide / all reads for the bait, averaged over …
chain 1 KEQWAAEFIQQQGTSD	0.000873 average fractional NGS count over selection days 2 and 3 (reads of this peptide / all reads for the bait, averaged over …
chain 1 AEHWAAEFIQQQGTSD	0.00576 average fractional NGS count over selection days 2 and 3 (reads of this peptide / all reads for the bait, averaged over …
chain 1 AEQWAAEYIQQQGTSD	0.000429 average fractional NGS count over selection days 2 and 3 (reads of this peptide / all reads for the bait, averaged over …
chain 1 AEQWAAEFIQQQETSD	0.000748 average fractional NGS count over selection days 2 and 3 (reads of this peptide / all reads for the bait, averaged over …
chain 1 AEQWMAEFIQQQGTSD	0.00306 average fractional NGS count over selection days 2 and 3 (reads of this peptide / all reads for the bait, averaged over …
chain 1 AEQWAFEFIQQQGTSD	0.00131 average fractional NGS count over selection days 2 and 3 (reads of this peptide / all reads for the bait, averaged over …
chain 1 AGQWAAEFIQQQGTSD	0.000866 average fractional NGS count over selection days 2 and 3 (reads of this peptide / all reads for the bait, averaged over …
